Measurements from PMC7961048, “Hierarchized phosphotarget binding by the seven human 14-3-3 isoforms” (Nature Communications, 2021).

Legend:
[1] = target: phosphorylated 14-3-3ζ-18E6 chimera (14-3-3ζ∆C-GGGG-18E6 PBM) (human | human papillomavirus type 18) (UniProt P63104); assay: crystal structure
[2] = target: 14-3-3ε (UniProt P62258); assay: competitive FP, FITC-HSPB6 phosphopeptide tracer; settings: reference: unphosphorylated 18E6 peptide; sites T156
[3] = target: 14-3-3η (UniProt Q04917); assay: competitive FP, FITC-HSPB6 phosphopeptide tracer; settings: reference: unphosphorylated 18E6 peptide; sites T156
[4] = target: 14-3-3σ (UniProt P31947); assay: competitive FP, FITC-HSPB6 phosphopeptide tracer; settings: reference: unphosphorylated 18E6 peptide; sites T156
[5] = target: 14-3-3γ (UniProt P61981); assay: competitive FP, FITC-HSPB6 phosphopeptide tracer; settings: reference: unphosphorylated 18E6 peptide; sites T156
[6] = target: 14-3-3ζ (UniProt P63104); assay: competitive FP, FITC-HSPB6 phosphopeptide tracer; settings: reference: unphosphorylated 18E6 peptide; sites T156
[7] = target: 14-3-3β (UniProt P31946); assay: competitive FP, FITC-HSPB6 phosphopeptide tracer; settings: reference: unphosphorylated 18E6 peptide; sites T156
[8] = target: 14-3-3τ (UniProt P27348); assay: competitive FP, FITC-HSPB6 phosphopeptide tracer; settings: reference: unphosphorylated 18E6 peptide; sites T156

Substance | stoichiometry N [1] | binding against the reference [2] | binding against the reference [3] | binding against the reference [4] | binding against the reference [5] | binding against the reference [6] | binding against the reference [7] | binding against the reference [8]
phosphorylated 14-3-3ζ-18E6 chimera (14-3-3ζ∆C-GGGG-18E6 PBM) (from UniProt P63104 1-229) | 2 |  |  |  |  |  |  | 
HPV18 E6 (18E6) (from UniProt P06463) p18E6 peptide |  | gained | gained | gained | gained | gained | gained | gained
